Target: FLAG-CRAF (1-648)

B1: human placental GSTP1 (Sigma-Aldrich) (protein)
chain: PPYTVVYFPVRGRCAALRMLLADQGQSWKEEVVTVETWQEGSLKASCLYGQLPKFQDGDLTLYQSNTILRHLGRTLGLYGKDQQEAALVDMVNDGVEDLRCKYISLIYTNYEAGKDDYVKALPGQLKPFETLLSQNQGGKTFIVGDQISFADYNLLDLLLIHEVLAPGCLDAFPLLSAYVGRLSARPKLKAFLASPEYVNLPINGNGKQ
- phosphorylation of MEK1 by FLAG-CRAF (in vitro kinase assay, Western blot for p-MEK1/2): GSTP1 was found to enhance the phosphorylation of MEK1 by FLAG-CRAF (compare lanes 3 and 5 in FIG. 3)

Reference: US20200370050
